Sequences and labels used below:
T1: His6-tagged BIG2 N-terminal fragment (1–216) (human, UniProt Q9Y6D5 1-216)
T1 construct: human BIG2, UniProt Q9Y6D5, N-terminal fragment, residues 1-216; also called related region from BIG2; source: E. coli BL21-CodonPlus (DE3)-RIPL, purified (Ni-NTA); not shown: His6, N-terminal, kept
T1 sequence (looked up): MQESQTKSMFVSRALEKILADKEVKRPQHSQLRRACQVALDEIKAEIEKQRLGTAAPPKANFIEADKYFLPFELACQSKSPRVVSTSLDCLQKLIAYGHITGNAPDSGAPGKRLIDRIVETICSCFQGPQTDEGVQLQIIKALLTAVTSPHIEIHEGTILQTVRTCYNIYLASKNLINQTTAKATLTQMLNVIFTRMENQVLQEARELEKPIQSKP

T2: His6-DCB^BIG1 (human BIG1 residues 1–228) (human, UniProt Q9Y6D6 1-228)
T2 construct: also called DCB domain; source: E. coli BL21-CodonPlus (DE3)-RIPL, purified (Ni-NTA); not shown: His6, N-terminal, kept
T2 sequence (looked up): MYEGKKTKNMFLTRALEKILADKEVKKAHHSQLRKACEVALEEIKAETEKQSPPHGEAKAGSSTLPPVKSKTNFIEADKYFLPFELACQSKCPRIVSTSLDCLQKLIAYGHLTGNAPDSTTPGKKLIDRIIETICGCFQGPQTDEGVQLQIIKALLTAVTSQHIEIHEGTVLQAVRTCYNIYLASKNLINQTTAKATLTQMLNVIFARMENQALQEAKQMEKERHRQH

B1: GST-Arl1^ΔN14 (human Arl1 residues 15–181), loaded with GMP-PNP or GDP (domain or fragment, UniProt P40616 15-181, looked up)
chain: TREMRILILGLDGAGKTTILYRLQVGEVVTTIPTIGFNVETVTYKNLKFQVWDLGGQTSIRPYWRCYYSNTDAVIYVVDSCDRDRIGISKSELVAMLEEEELRKAILVVFANKQDMEQAMTSSEMANSLGLPALKDRKWQIFKTSATKGTGLDEAMEWLVETLKSRQ
notes: human Arl1, UniProt P40616, residues 15-181 (lacks the N-terminal amphipathic helix, residues 1-14); it was loaded with nucleotide (GMP-PNP or GDP) in vitro; also called Arl1^GTP; GST-Arl1^GMP-PNP; source: E. coli BL21-CodonPlus (DE3)-RIPL, purified (glutathione-Sepharose); not shown: GST, N-terminal, kept
B2: MBP-tagged DCB^BIG1 (wild type) (domain or fragment, human, UniProt Q9Y6D6 1-228, looked up)
chain: T2 sequence (looked up)
notes: Expected monomer 69 kDa, measured average 129 kDa; also called MBP-DCB^BIG1; not shown: MBP, N-terminal, kept
B3: His6-DCB^Δ51–71 (human BIG1 residues 1–228 with a deletion of residues 51–71 inclusive) (domain or fragment, UniProt Q9Y6D6 1-228, looked up)
chain: MYEGKKTKNMFLTRALEKILADKEVKKAHHSQLRKACEVALEEIKAETEKTNFIEADKYFLPFELACQSKCPRIVSTSLDCLQKLIAYGHLTGNAPDSTTPGKKLIDRIIETICGCFQGPQTDEGVQLQIIKALLTAVTSQHIEIHEGTVLQAVRTCYNIYLASKNLINQTTAKATLTQMLNVIFARMENQALQEAKQMEKERHRQH
notes: also called DCB^((Δ51–71) BIG1); source: E. coli BL21-(DE3)-RIPL, co-expressed with GST-Arl1^Q71L, purified (glutathione-Sepharose, TEV release, Superdex 75)

In data set [1] the target is T1, His6-tagged BIG2 N-terminal fragment …. The data set is described as follows: pull-down; 2 nM GST-Arl1 loaded with GMP-PNP or GDP mixed with 2 nM His6-tagged protein in 500 μl buffer C (20 mM Tris-HCl, 110 mM KCl, 1 mM DTT, 0.1% Triton X-100) plus 5 mM MgCl2, 4°C 30 min, captured on glutathione-Sepharose; SDS-PAGE, Coomassie. The following applies: both partners purified.

Data set [2] has as its target T2, His6-DCB^BIG1 (human BIG1 residues …). Described as above. The following applies: both partners purified.
Data set [3] addresses B3. The description is as above. The note with it: both partners purified.
Data set [4] deals with the molecule itself. In words: SEC-MALS; MBP-tagged DCB^BIG1 proteins on Superdex-75 HR10/300, 0.5 ml/min, PBS pH 7.5, 150 mM NaCl, 5 mM MgCl2, 0.001% Triton X-100; dimer to monomers. Background: SEC sorts molecules by how far they enter the pores of the column.
Data set [5] deals with the molecule itself. The data set is described as follows: crystal structure; Arl1^Q71L-GTP/Mg2+/DCB^Δ51–71, space group C2, one complex per asymmetric unit, 2.3 Å, molecular replacement.

A word on the stoichiometry N: it is a count of units in the complex or per binding partner.

As for B1, the binding result in data set [1], in data set [2] and in data set [3] was “binds” throughout.
Take B2: the “stoichiometry N” value in data set [4] was 2.
As for B3, in data set [5], the binding result is “binds”.

The values are drawn from article PMC4956616, “Structural Insights into Arl1-Mediated Targeting of the Arf-GEF BIG1 to the trans-Golgi” (Cell Reports, 2016).
